Results taken from patent US12503518B2, “Heparanase-neutralizing A54 monoclonal antibody” (TECHNION RESEARCH & DEVELOPMENT FOUNDATION LIMITED, priority 2020, dated 2025).

Assays:
[1] = test system: MPC-11 mouse myeloma cells; test: MPC-11 myeloma tumor growth in syngeneic Balb/c mice; type: in vivo
Experimental: MPC-11 myeloma. Mouse MPC-11 myeloma cells are detached with trypsin/EDTA, washed with PBS, brought to a concentration of 5×10^5 cells/0.2 ml and inoculated subcutaneously at the right flank of 6-8-weeks-old Balb/c mice. Three days after cell inoculation, mice are randomly assigned to 2 cohorts (6 mice each) receiving (a) vehicle (PBS); and (b) A54 mAb (500 μg/mouse, 3 times/week. Xenograft size is determined on day 7, 10 and 14 by externally measuring tumors in 2 dimensions using a caliper. At the end of the experiment, mice are sacrificed and tumor xenografts are removed and weighed.
Briefly, Balb/c mice were inoculated (s.c.) with MPC-11 mouse myeloma cells (0.5×10^6). Treatment with mAb A54 (250 or 500 μg/mouse every other day) was initiated two days after cell inoculation. Control cells were administrated with PBS. Xenograft size was determined twice a week by externally measuring the tumors in two dimensions using a caliper, and tumor volume was calculated (FIG. 6A). At the end of the experiment (Day 14) xenografts were removed, weighed (FIG. 6B), fixed in formalin and photographed (FIG. 6C). […] The above results imply that the development of primary tumors can be restrained by the anti-heparanase mAb A54.

U87 glioma cells = test: Matrigel invasion assay; type: cell-based, human; conditions: antibody 2 g, 6 h, vs control mouse IgG; p=0.001; FIG. 4C
Experimental: Matrigel invasion assay. Invasion assay was performed using modified Boyden chambers with polycarbonate Nucleopore membrane, essentially as described (Arvatz et al. 2011, ibid.). Briefly, filters (6.5 mm in diameter, 8 μm pore-size) were coated with Matrigel (30 μl); Cells (2×10^5) in 100 μl of serum-free medium were seeded in triplicate on the upper part of each chamber in the presence of the indicated antibody, and the lower compartment was filled with 600 μl medium supplemented with 10% FCS. After incubation for 5 h at 37° C. in a 5% CO2 incubator, non-invading cells on the upper surface of the filter were wiped with a cotton swab, and migrated cells on the lower surface of the filter were fixed, stained with 0.5% crystal violet (Sigma) and counted by examination of at least seven microscopic fields (Barash et al., J Natl Cancer Inst. 110:1102-1114, 2018).
Thereafter, the antibody effect on cell invasion was examined. Briefly, U87 glioma cells (1×10^5) were plated onto Matrigel-coated 8-μm Transwell filters in the presence of control mouse IgG or mAb A54 ([…]). Invading cells adhering to the lower side of the membrane were visualized after 6 h (FIGS. 4A-B) and quantified (FIG. 4C; number of invading cells per high power field; *p=0.001) as described in ‘Methods’.

B1: mAb A54: heparanase-neutralizing murine monoclonal antibody, IgG1-Kappa; VH SEQ ID NO: 7, VL SEQ ID NO: 8; binds HBD-II of heparanase (antibody, listed as Mus musculus, V domains shown)
VH: QVQLQQSGAELAKPGASVRMSCKASGYTFTNYWMHWVKQRPGQGLEWIGYINPTTGYTEYNQKFKDKATLTADKSSSTAYMQLSSLTSEDSAVYYCARGGAGYDYDEDYAMDYWGQGTSVTVSS
VL: DIVLTQSPASLAVSLGQRATISCRASESVEYFGTSYMNWYQQKPGQPPKLLIYLASILESGIPARFSGSGSGTDFTLNIHPVEEEDAATYYCQQSNEDPYTFGGGTKLEIK
attenuation of myeloma tumor growth ([1]; 250 or 500 μg/mouse every other day from day 2, day 14, vs PBS): 4 fold
dose dependence of tumor growth attenuation ([1]; 250 vs 500 μg/mouse every other day): higher dose of antibody was more effective
attenuation of invasion of U87 glioma cells through Matrigel (U87 glioma cells): ~90%
